{"source": "patent US20260242487A1", "about": "(HANGZHOU ZHONGMEIHUADONG PHARMACEUTICAL, published 2026)", "key": {"[1]": {"target": "T1, hFGFR2b-Fc (Kactus, Catalog #FGR-HM2BB) (human, UniProt P21802-3 22-378, biotinylated in Example 9 (printed as biotin-hFGFR2b-Fc; site not stated))", "T1 construct": "Bought reagent; also called biotin-hFGFR2b-Fc; not shown: Fc part", "T1 sequence (P21802 other isoform, or with tags, fused parts or gaps)": "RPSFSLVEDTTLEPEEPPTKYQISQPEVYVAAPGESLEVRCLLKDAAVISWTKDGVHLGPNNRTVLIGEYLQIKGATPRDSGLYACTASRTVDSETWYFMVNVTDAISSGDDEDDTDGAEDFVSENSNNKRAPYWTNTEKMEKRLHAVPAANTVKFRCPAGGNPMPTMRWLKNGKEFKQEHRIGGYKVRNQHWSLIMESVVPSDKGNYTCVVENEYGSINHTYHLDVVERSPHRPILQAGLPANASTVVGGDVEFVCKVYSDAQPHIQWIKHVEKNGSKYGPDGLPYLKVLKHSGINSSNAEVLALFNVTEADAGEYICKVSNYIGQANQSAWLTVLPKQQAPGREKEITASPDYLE", "assay": "competition ELISA: inhibition of biotin-FGF10 binding to coated hFGFR2b-Fc", "description": "(§1) Inhibition of binding of FGF7 and FGF10 to FGFR2b by anti-FGFR2b antibodies was measured by ELISA assay. Each step of each assay was performed by room temperature incubation with the appropriate reagent for 1 hour, except the initial plate coating step was done overnight at 4° C. Between each step, plates were washed 3 times in PBS containing 0.05% Tween 20.\n(§2) To determine the abilities of the anti-FGFR2b mAbs to block ligand binding to FGFR2b, plates were coated with 1 μg/ml hFGFR2b-Fc (Kactus, Catalog #FGR-HM2BB), and followed by blocking with 2% BSA. The plates were next incubated with human FGF7-his (20 nM, Sino Biological, Catalog #10210-H07E) or biotin-FGF10 (5 nM, Kactus, Catalog #FGF-HE010B) in the presence of serial diluted (1:5) anti-FGFR2b mAbs, and the bound ligands were detected with HRP-anti 6×His tag (Abcam, Catalog #ab1187) or Streptavidin-Protein HRP (Thermo, Catalog #21126) and TMB substrate (Cell Signaling, Catalog #7004P6)."}, "[2]": {"target": "T1, hFGFR2b-Fc (Kactus, Catalog #FGR-HM2BB)", "assay": "competition ELISA: inhibition of FGF7-his binding to coated hFGFR2b-Fc", "description": "as §1, §2"}, "FGFR2b-his": {"target": "T2, FGFR2b-his (human, UniProt P21802-3 22-378)", "T2 construct": "also called human FGFR2b antigen; human FGFR2b (FGFR2b-his); not shown: his tag", "assay": "surface plasmon resonance (Octet, Sartorius): antibody immobilized by amine coupling, FGFR2b-his flowed over", "description": "The binding affinities of anti-FGFR2b mAbs for human FGFR2b (FGFR2b-his) was measured using surface plasmon resonance (Octet, Sartorius). Anti-FGFR2b mAbs were immobilized on a dextran chip using the amine coupling kit and 100 mM ethylenediamine in 100 mM sodium borate, pH 8.0, was used as the blocking reagent. FGFR2b-his proteins diluted in HEPES-buffered saline with 0.05% surfactant P20 running buffer were flowed over the immobilized antibody."}, "[3]": {"target": "T3, human FGFR2b expressed on cells (hFGFR2b-expressing CHOK1 cells); Ba/F3 cells expressing full-length human … (human, UniProt P21802-3 22-822)", "T3 construct": "whole, on cells; also called FGFR2IIIb; CHOK1-FGFR2IIIb transfectants", "T3 sequence (P21802 other isoform, or with tags, fused parts or gaps)": "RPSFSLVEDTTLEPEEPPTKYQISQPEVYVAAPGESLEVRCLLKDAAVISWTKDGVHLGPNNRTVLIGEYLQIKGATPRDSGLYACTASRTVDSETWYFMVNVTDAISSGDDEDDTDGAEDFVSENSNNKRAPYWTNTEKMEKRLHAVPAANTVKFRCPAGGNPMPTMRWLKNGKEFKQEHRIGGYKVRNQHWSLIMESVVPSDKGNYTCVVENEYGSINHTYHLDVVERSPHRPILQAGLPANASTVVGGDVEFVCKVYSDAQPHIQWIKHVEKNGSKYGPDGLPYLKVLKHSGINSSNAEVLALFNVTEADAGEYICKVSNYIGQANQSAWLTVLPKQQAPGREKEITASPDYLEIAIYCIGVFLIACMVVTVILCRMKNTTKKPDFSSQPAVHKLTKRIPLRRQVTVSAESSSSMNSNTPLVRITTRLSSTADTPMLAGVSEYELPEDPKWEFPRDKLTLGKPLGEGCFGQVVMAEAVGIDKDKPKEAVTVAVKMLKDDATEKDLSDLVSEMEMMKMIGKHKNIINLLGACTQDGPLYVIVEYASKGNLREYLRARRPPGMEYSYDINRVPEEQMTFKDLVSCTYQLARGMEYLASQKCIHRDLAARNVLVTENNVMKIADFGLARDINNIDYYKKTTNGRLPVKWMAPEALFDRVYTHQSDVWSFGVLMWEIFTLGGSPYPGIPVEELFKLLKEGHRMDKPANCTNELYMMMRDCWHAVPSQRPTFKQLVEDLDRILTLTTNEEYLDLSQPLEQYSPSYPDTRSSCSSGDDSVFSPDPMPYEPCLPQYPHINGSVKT", "assay": "flow cytometry on CHOK1 cells expressing hFGFR2b, detection with APC anti-human IgG Fc", "description": "Appropriate cells (1×10⁵) were washed twice in FACS buffer (PBS+2% BSA), resuspended in 100 μl of FACS buffer containing serial diluted (1:5) anti-FGFR2b mAbs, and incubated at 4° C. for 1 hour. Cells were then washed twice in FACS buffer and the bound antibodies were detected by incubation with APC anti-human IgG Fc (Biolegend, Catalog #410712) for 1 hour at 4° C. After washing twice in FACS buffer, cells were analyzed on a Cytoflex (Beckmann Coulter). Aprutumab was also tested as a positive control which can bind to both FGFR2b and FGFR2c."}}, "data": [{"binder": "HC18 (antibody, human IgG1, kappa, V domains shown, also called mAb HC18; the antibody of the present disclosure) VH: EVQLQQSGTVLARPGASVKMSCKTSGYTFTSYWMHWVKQRPGQGLEWIGSIYPENSDTSYNQKFKGKAKLTAVTSASTAYMDLSSLTNEDSAVYYCSIYHGYDGDYWGQGTTLTVSS VL: QIVLTQSPAIMSASPGEKVTITCSASSSVSYMYWFQQKPGTSPKLWIYSTSNLASGVPARFSGSGSGTSYSLTISRMEAEDAATYYCQQRSSYPYTFGGGTKLEIKR", "values": [{"measurement": "IC50", "setting": "[1]", "value": 4.99, "unit": "nM"}, {"measurement": "IC50", "setting": "[2]", "value": 3.82, "unit": "nM"}, {"measurement": "Kd", "setting": "FGFR2b-his", "value": 26.7, "unit": "nM"}, {"measurement": "koff", "setting": "FGFR2b-his", "value": 0.005, "unit": "s⁻¹"}, {"measurement": "kon", "setting": "FGFR2b-his", "value": 187000, "unit": "M⁻¹ s⁻¹"}, {"measurement": "EC50 (read off the curve)", "setting": "[3]", "value": "~0.4", "unit": "nM"}]}]}
